# Assay results taken from the RNAGym collection of RNA variant scans (doi:10.7554/elife.80360).
# B1: HDV Ribozyme (parent)
# chain: GGCCGGCAUGGUCCCAGCCUCCUCGCUGGCGCCGGCUGGGCAACAUUCCGAGGGGACCGUCCCCUCGGUAAUGGCGAAUGGGACCCA
# Variants of: B1
# Assay: self-cleavage, relative activity (ratio to wild type); higher = more cleavage; co-transcriptional
row,Variant,self-cleavage
1,GGCCGGCAUGGUCCCAGCCUCCUCGCUGGCGCCGGCUGGGCAACAUUCCGAGGGGACCGUCCCCUCGGUAGUGCCGAAUGGGACCCA [A71G G74C],0.383
2,GGCCGGCAUGGUCCCAGCCUCCUCGCUGGCGCCGGCUGGGCAACAUUCCGAGGGGACCGUCCCCUCGGUAGUGACGAAUGGGACCCA [A71G G74A],0.4
3,GGCCGGCAUGGUCCCAGCCUCCUCGCUGGCGCCGGCUGGGCAACAUUCCGAGGGGACCGUCCCCUCGGUACUGGCGAAUGGGACCGA [A71C C86G],0.63
4,GGCCGGCAUGGUCCCAGCCUCCUCGCUGGCGCCGGCUGGGCAACAUUCCGAGGGGACCGUCCCCUCGGUUAUGUCGAAUGGGACCCA [A70U G74U],0.499
5,GGCCGGCAUGGUCCCAGCCUCCUCGCUGGCGCCGGCUGGGCAACAUUCCGAGGGGACCGUCCCCUCGGUUAUGACGAAUGGGACCCA [A70U G74A],0.358
6,GGCCGGCAUGGUCCCAGCCUCCUCGCUGGCGCCGGCUGGGCAACAUUCCGAGGGGACCGUCCCCUCGGUACUGGCGCAUGGGACCCA [A71C A77C],0.0978
7,GGCCGGCAUGGUCCCAGCCUCCUCGCUGGCGCCGGCUGGGCAACAUUCCGAGGGGACCGUCCCCUCGGUACUGGCGGAUGGGACCCA [A71C A77G],0.569
8,GGCCGGCAUGGUCCCAGCCUCCUCGCUGGCGCCGGCUGGGCAACAUUCCGAGGGGACCGUCCCCUCGGUACUGGCGUAUGGGACCCA [A71C A77U],0.322
9,GGCCGGCAUGGUCCCAGCCUCCUCGCUGGCGCCGGCUGGGCAACAUUCCGAGGGGACCGUCCCCUCGGUAGUGGCGAAUGGGUCCCA [A71G A83U],0.323
10,GGCCGGCAUGGUCCCAGCCUCCUCGCUGGCGCCGGCUGGGCAACAUUCCGAGGGGACCGUCCCCUCGGUACUGGCGAAUGGGAGCCA [A71C C84G],0.415
11,GGCCGGCAUGGUCCCAGCCUCCUCGCUGGCGCCGGCUGGGCAACAUUCCGAGGGGACCGUCCCCUCGGUACUGUCGAAUGGGACCCA [A71C G74U],0.789
12,GGCCGGCAUGGUCCCAGCCUCCUCGCUGGCGCCGGCUGGGCAACAUUCCGAGGGGACCGUCCCCUCGGUUACGGCGAAUGGGACCCA [A70U U72C],0.653
13,GGCCGGCAUGGUCCCAGCCUCCUCGCUGGCGCCGGCUGGGCAACAUUCCGAGGGGACCGUCCCCUCGGUACUGGCAAAUGGGACCCA [A71C G76A],0.935
14,GGCCGGCAUGGUCCCAGCCUCCUCGCUGGCGCCGGCUGGGCAACAUUCCGAGGGGACCGUCCCCUCGGUACUGGCCAAUGGGACCCA [A71C G76C],0.848
15,GGCCGGCAUGGUCCCAGCCUCCUCGCUGGCGCCGGCUGGGCAACAUUCCGAGGGGACCGUCCCCUCGGUACUGGCGAAUAGGACCCA [A71C G80A],0.266
16,GGCCGGCAUGGUCCCAGCCUCCUCGCUGGCGCCGGCUGGGCAACAUUCCGAGGGGACCGUCCCCUCGGUACUGGCGAAUUGGACCCA [A71C G80U],0.182

row,Variant,self-cleavage
1,GGCCGGCAUGGUCCCAGCCUCCUCGCUGGCGCCGGCUGGGCAACAUUCCGAGGGGACCGUCCCCUCGGUACUGGCGAAUGGCACCCA [A71C G82C],0.268
2,GGCCGGCAUGGUCCCAGCCUCCUCGCUGGCGCCGGCUGGGCAACAUUCCGAGGGGACCGUCCCCUCGGUACUGGCGAAUGUGACCCA [A71C G81U],0.17
3,GGCCGGCAUGGUCCCAGCCUCCUCGCUGGCGCCGGCUGGGCAACAUUCCGAGGGGACCGUCCCCUCGGUACUGGCGAAUGGGACUCA [A71C C85U],0.875
4,GGCCGGCAUGGUCCCAGCCUCCUCGCUGGCGCCGGCUGGGCAACAUUCCGAGGGGACCGUCCCCUCGGUACUGGCGAGUGGGACCCA [A71C A78G],0.615
5,GGCCGGCAUGGUCCCAGCCUCCUCGCUGGCGCCGGCUGGGCAACAUUCCGAGGGGACCGUCCCCUCGGUACUGGCGACUGGGACCCA [A71C A78C],0.219
6,GGCCGGCAUGGUCCCAGCCUCCUCGCUGGCGCCGGCUGGGCAACAUUCCGAGGGGACCGUCCCCUCGGUUCUGGCGAAUGGGACCCA [A70U A71C],0.802
7,GGCCGGCAUGGUCCCAGCCUCCUCGCUGGCGCCGGCUGGGCAACAUUCCGAGGGGACCGUCCCCUCGGUUAUGGCGACUGGGACCCA [A70U A78C],0.0941
8,GGCCGGCAUGGUCCCAGCCUCCUCGCUGGCGCCGGCUGGGCAACAUUCCGAGGGGACCGUCCCCUCGGUAGUGGCGAAUGGGACCCC [A71G A87C],1.03
9,GGCCGGCAUGGUCCCAGCCUCCUCGCUGGCGCCGGCUGGGCAACAUUCCGAGGGGACCGUCCCCUCGGUGAUGGCGAAGGGGACCCA [A70G U79G],0.582
10,GGCCGGCAUGGUCCCAGCCUCCUCGCUGGCGCCGGCUGGGCAACAUUCCGAGGGGACCGUCCCCUCGGUAGUCGCGAAUGGGACCCA [A71G G73C],0.6
11,GGCCGGCAUGGUCCCAGCCUCCUCGCUGGCGCCGGCUGGGCAACAUUCCGAGGGGACCGUCCCCUCGGUUAUGGCGAAUGGGAACCA [A70U C84A],0.969
12,GGCCGGCAUGGUCCCAGCCUCCUCGCUGGCGCCGGCUGGGCAACAUUCCGAGGGGACCGUCCCCUCGGUACUGGCGAAUGGGACCCU [A71C A87U],0.844
13,GGCCGGCAUGGUCCCAGCCUCCUCGCUGGCGCCGGCUGGGCAACAUUCCGAGGGGACCGUCCCCUCGGUACUGGCGAAUGGGACCCC [A71C A87C],0.755
14,GGCCGGCAUGGUCCCAGCCUCCUCGCUGGCGCCGGCUGGGCAACAUUCCGAGGGGACCGUCCCCUCGGUAGUGGUGAAUGGGACCCA [A71G C75U],0.151
15,GGCCGGCAUGGUCCCAGCCUCCUCGCUGGCGCCGGCUGGGCAACAUUCCGAGGGGACCGUCCCCUCGGUUAUGGCGAAUGGGACACA [A70U C85A],1.06
16,GGCCGGCAUGGUCCCAGCCUCCUCGCUGGCGCCGGCUGGGCAACAUUCCGAGGGGACCGUCCCCUCGGUUAUGGCGAAUGGGACUCA [A70U C85U],0.746
